Each substance was assayed against purified recombinant human insulin receptor-exon 11 (human) (UniProt P06213) (assay: competition with 125I-insulin (SPA)).
Chain of purified recombinant human insulin receptor-exon 11 (human) (P06213 other isoform, or with tags, fused parts or gaps limits assumed, form in doubt): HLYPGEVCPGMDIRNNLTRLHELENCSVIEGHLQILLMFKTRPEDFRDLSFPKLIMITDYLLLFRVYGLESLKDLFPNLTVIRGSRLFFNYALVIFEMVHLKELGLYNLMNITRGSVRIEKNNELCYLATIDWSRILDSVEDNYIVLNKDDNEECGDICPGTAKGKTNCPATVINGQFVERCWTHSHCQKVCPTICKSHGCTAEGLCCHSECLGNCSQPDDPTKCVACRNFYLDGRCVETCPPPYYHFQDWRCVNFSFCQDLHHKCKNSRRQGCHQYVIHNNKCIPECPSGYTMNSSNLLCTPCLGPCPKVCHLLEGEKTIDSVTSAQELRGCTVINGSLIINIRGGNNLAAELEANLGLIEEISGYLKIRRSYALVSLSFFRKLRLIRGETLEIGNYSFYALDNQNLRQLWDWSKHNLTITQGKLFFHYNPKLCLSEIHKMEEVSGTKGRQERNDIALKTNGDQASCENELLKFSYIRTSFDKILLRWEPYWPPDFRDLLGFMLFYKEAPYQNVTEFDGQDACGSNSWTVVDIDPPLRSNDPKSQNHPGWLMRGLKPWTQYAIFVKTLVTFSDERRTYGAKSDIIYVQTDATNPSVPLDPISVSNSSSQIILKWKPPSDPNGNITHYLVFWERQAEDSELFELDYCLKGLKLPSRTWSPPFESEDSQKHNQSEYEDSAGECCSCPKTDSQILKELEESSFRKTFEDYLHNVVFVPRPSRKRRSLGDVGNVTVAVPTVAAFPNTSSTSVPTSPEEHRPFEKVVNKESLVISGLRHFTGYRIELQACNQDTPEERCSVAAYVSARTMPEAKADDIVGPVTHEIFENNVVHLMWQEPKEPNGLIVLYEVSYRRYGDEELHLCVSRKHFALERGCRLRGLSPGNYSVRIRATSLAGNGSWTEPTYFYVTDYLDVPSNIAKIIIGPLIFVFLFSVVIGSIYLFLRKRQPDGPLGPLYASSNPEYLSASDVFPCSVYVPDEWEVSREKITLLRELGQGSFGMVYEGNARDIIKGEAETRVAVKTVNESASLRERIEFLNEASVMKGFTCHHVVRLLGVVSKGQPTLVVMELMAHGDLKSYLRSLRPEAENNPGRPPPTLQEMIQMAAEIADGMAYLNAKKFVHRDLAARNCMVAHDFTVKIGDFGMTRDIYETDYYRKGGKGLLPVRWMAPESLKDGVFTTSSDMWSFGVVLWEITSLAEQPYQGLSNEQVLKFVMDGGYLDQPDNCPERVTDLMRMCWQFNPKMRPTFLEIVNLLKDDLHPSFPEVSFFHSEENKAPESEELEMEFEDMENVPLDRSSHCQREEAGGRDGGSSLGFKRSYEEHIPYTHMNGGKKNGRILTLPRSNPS

IR, binding relative to human insulin [%]	Substance
261	single-chain insulin PAK 1790, connecting peptide VGLMSGK [A18Q_A21G] (from UniProt P01308 25-53; P01308 90-110) (ligand)
69	single-chain insulin PAK 1869, connecting peptide VGLSSGQ [B22K_B29A_A18Q] (from UniProt P01308 25-53; P01308 90-110) (ligand)
33	single-chain insulin PAK 1769013, connecting peptide QVGSSSGK [A18Q_A21G] (from UniProt P01308 25-53; P01308 90-110) (ligand)
120	single-chain insulin PAK 1764, connecting peptide AGLGSGK [A18Q_A21G] (from UniProt P01308 25-53; P01308 90-110) (ligand)
49	single-chain insulin with connecting peptide LGSSGK (SEQ ID NO:113), no PAK number printed (from UniProt P01308 25-53; P01308 90-110) (ligand)
20	single-chain insulin PAK 1762, connecting peptide AGMGSGP [A18Q_A21G] (from UniProt P01308 25-53; P01308 90-110) (ligand)
34	single-chain insulin with connecting peptide QGSSGK (SEQ ID NO:115), no PAK number printed (from UniProt P01308 25-53; P01308 90-110) (ligand)
34	single-chain insulin PAK 1891, connecting peptide TGLGSGQ [B10A_A18Q] (from UniProt P01308 25-53; P01308 90-110) (ligand)
56	single-chain insulin PAK 1769062, connecting peptide PVGSSSGK [A18Q_A21G] (from UniProt P01308 25-53; P01308 90-110) (ligand)
51	single-chain insulin PAK 1769020, connecting peptide SVGSSSGK [A18Q_A21G] (from UniProt P01308 25-53; P01308 90-110) (ligand)
125	single-chain insulin PAK 1818, connecting peptide KGLGSGQ [B3Q_B29R_A18Q_A21G] (from UniProt P01308 25-53; P01308 90-110) (ligand)
196	single-chain insulin PAK 1866, connecting peptide VGLSSGQ [A18Q] (from UniProt P01308 25-53; P01308 90-110) (ligand)
37	single-chain insulin PAK 1816, connecting peptide AGLGSGQ [B3Q_A18Q] (from UniProt P01308 25-53; P01308 90-110) (ligand)
113	single-chain insulin PAK 1838, connecting peptide TGLGKGQ [B29R_A18Q] (from UniProt P01308 25-53; P01308 90-110) (ligand)
23	single-chain insulin PAK 1784, connecting peptide WASGSGK [A18Q_A21G] (from UniProt P01308 25-53; P01308 90-110) (ligand)
51	single-chain insulin PAK 1893, connecting peptide TGLGSGQ [B10Q_A18Q] (from UniProt P01308 25-53; P01308 90-110) (ligand)
248	single-chain insulin PAK 1789, connecting peptide VGLRSGK [A18Q_A21G] (from UniProt P01308 25-53; P01308 90-110) (ligand)
42	single-chain insulin PAK 1733, connecting peptide VGSSSGK [A21G] (from UniProt P01308 25-53; P01308 90-110) (ligand)

Source: US20090170750A1 (Novo Nordisk, published 2009)
